# Test results: the RNAGym collection of RNA variant scans (doi:10.7554/elife.90254)
# B1: LINE1-full (parent)
# chain: UACGUAGGUGGUUUUCCCCUGAUAGUGCUAAGGGGGCCUGGAAGUUUGGACUGGGCAGAGCUCAACACAGCGUGGCAAAGUGGCUGUGGCUAGACUGCCUCUCUGGAUUCCUCGUCACUCAGCAGGGCAUCUCUGAGAGAAAUGCC
# Variants of: B1
# Experiment: self-cleavage, relative activity (ratio to wild type); higher = more cleavage; in vitro, sequencing; the parent is a self-cleaving ribozyme
row,Variant,self-cleavage
1,C99U C145U,0.82
2,G41A A79U,1.28
3,U104G C113U,0.83
4,U29C U102A,1.84
5,A78U U96C,0.17
6,U20A U47C,1.31
7,A24G C123U,0.71
8,G10A U47C,1.37
9,U39A G80A,2.24
10,A117U A138G,1.52
11,U20A U109A,0.88
12,U96C C146U,0.15
13,C113A U130C,0.44
14,A59G U104C,0.15
15,U9C U134G,0.63
16,U39G A77G,1.53
17,U62C U96A,0.03
18,A24U G35A,0.8
19,U23A A65G,0.1
20,A69U G97A,0.03
21,G33U A121G,0.64
22,U81C A121G,1.38
23,C18U U73A,1.78
24,G54U U104C,1.28

row,Variant,self-cleavage
1,G80C U132C,1.84
2,C37A G88U,0
3,A57G C113U,0.29
4,A57G C63U,0.17
5,U5C U26C,1.23
6,U20C A24G,1.11
7,U26A A43G,0.97
8,A22U A94U,0.17
9,A67G A136G,0.67
10,U20A C51U,0.77
11,U20A C51A,0.82
12,A31G C98A,0
13,U47G U81A,1.81
14,A78U A94G,0.46
15,U96C C111U,0.12
16,C63G U130C,0.34
17,C37U C123U,1.67
18,C38U G74A,1.27
19,A42G C133A,1.59
20,A31U U47C,1.08
21,A6U A69G,0.89
22,A79U A121G,1.58
23,A67G A92G,0.09
24,U115C A140G,1.58

row,Variant,self-cleavage
1,U47A U81A,1.11
2,U12C U46C,1.62
3,A22G A124C,1.49
4,U112C U130A,1.59
5,U15C C51A,1.37
6,C38U U73C,1.76
7,U15C C56A,0.04
8,A30U U112C,1.08
9,A59G G125C,0.2
10,A57U A64C,0.06
11,A42G U130A,1.47
12,G54A U115A,0.64
13,U29C A78G,1.17
14,U15C G125A,0.87
15,C37U U62C,0.04
16,C76U C95U,0.41
17,G34C U96C,0.14
18,C38A U109A,1.36
19,A59G A64C,0
20,A50U G70C,0
21,A22C A129G,1.39
22,U5A A65G,0.08
23,C111U G137A,1.73
24,A138G A140U,1.29

row,Variant,self-cleavage
1,G11A A78G,1.38
2,G10C,0.79
3,U29A C101U,1.71
4,U14C C131A,1.15
5,A67G A94G,0.09
6,G75C U134A,0.49
7,A24G A121C,2.3
8,U87A A107U,0.09
9,A50C C146U,1.9
10,G25A A77G,0.92
11,G4C U115A,1.51
12,G8U U143A,2.02
13,G48U A57U,0.08
14,U14C C16A,0.84
15,A31U A64G,0.2
16,U134A A136G,0.53
17,U5A C110U,0.34
18,U13A U85C,0.13
19,C37U C68A,0.03
20,G4A U15C,1.11
21,C90U U108C,0.03
22,A43G A107G,1.5
23,A79U A124G,0.87
24,U96G U132C,0.16

row,Variant,self-cleavage
1,U12G A22C,1.68
2,U9C C95G,0.12
3,U73G A136G,1.84
4,U20G A69U,0
5,G75A U112A,0.91
6,G34U A124U,1.6
7,U45C A136U,1.49
8,U52A A92U,0.86
9,G55C U115C,0.26
10,U14A U29C,1.28
11,U26C C61A,0.06
12,G82A U119A,1.96
13,C19U A117G,1.49
14,U73A U104C,1.53
15,A24U A57U,0.16
16,A6G G139U,0.96
17,A30C U96C,0.39
18,U39C A138G,1.29
19,U15C A142G,1.41
20,C3U G8C,0.53
21,G53U U85A,0.11
22,U1C U20C,0.79
23,U26C G53U,1.2
24,G36A A43G,1.07

row,Variant,self-cleavage
1,G54A U87A,0.06
2,U20A A141G,1.43
3,U23A A31U,0.37
4,A43G C120U,1.52
5,G125A A129C,1.36
6,A31G G125U,0.96
7,A64G G82A,0.19
8,U23C C56A,0.07
9,U15C A64G,0.36
10,U9A C90U,0
11,U20C G75A,1.16
12,A22G A107U,0
13,A22G C37G,0.79
14,U9C U115C,1.29
15,U12G U26A,1.3
16,C51A U73G,0.69
17,G40A A78G,0.77
18,A2U A64U,0.37
19,U47A U73C,1.45
20,G34A U112C,0.94
21,G75C A142U,0.66
22,A6G C145U,1.64
23,U100C G127C,2.48
24,U91C C98U,0.19

row,Variant,self-cleavage
1,U9C G97A,0.33
2,A94C A124U,0
3,A57G C84U,0.11
4,G32A C128A,0.61
5,U23C,1.3
6,G74A U87C,0.08
7,A69G U85C,0.51
8,U96C C113G,0.11
9,A2G U73C,0.81
10,U13C A117G,1.02
11,U85C U100A,0
12,A50G A136U,1.15
13,A129G A140G,1.47
14,U26C A77U,1.55
15,U52A A78G,1.43
16,U5C C84U,0.18
17,U13A U26A,0.78
18,A59G G60C,0.07
19,U13A,0.98
20,U23C A65U,0.09
21,A92U A142G,0.66
22,U9A A136G,1.29
23,U14A U81A,2.09
24,C101G,1.78

row,Variant,self-cleavage
1,G21U A42G,0.8
2,G36A A141G,1.38
3,A43G G106A,1.36
4,C68U U108C,0.32
5,U23G A42G,1.46
6,G11A A141U,1.05
7,U52C U91A,0.49
8,G32A A121G,1.53
9,U119C C146U,1.68
10,C16U A141G,1.13
11,A67U G105U,0.12
12,G72A G105U,1.29
13,G8A U119A,2.47
14,U39A U45C,1.58
15,U52A G126C,1.81
16,U15C U45C,1.55
17,U13C A64U,0.44
18,A30G A65G,0.07
19,U87C U91C,0.31
20,U29G U108C,0.54
21,U5A U52A,0.52
22,U1C A117G,0.73
23,U29C A77C,0.85
24,U52C A77G,2.8

row,Variant,self-cleavage
1,G7U C16U,1.5
2,G8A A142G,1.45
3,A57G G75A,0.73
4,U14G A42G,1.15
5,U9G A22G,0.93
6,U13A A59U,0.44
7,G40A A129U,0.46
8,U9A A142G,1.13
9,A30G U73G,0.81
10,U23A A43G,1.27
11,G53U U104C,2.38
12,G54C U96C,0.03
13,A65G U132C,0.07
14,U46A U134C,1.84
15,A57G U134A,0.62
16,C3U U73C,1.49
17,U13C A107G,1.39
18,U52G U96C,0.55
19,U85A U130A,0.1
20,A94G U134C,0.44
21,U46A U108C,1.37
22,C3A U9C,1.11
23,U26C U46C,1.71
24,U46C C66U,0.02

row,Variant,self-cleavage
1,A57U A142U,0.08
2,A22G G53A,1.09
3,U15C G32A,0.93
4,C19U A77G,1.68
5,G53U U130A,1.53
6,U26C C38A,1.28
7,U13C U39C,1.08
8,G33C G89U,0.06
9,U62A U108C,0.04
10,A77U A142G,1.46
11,G32U U91G,0.1
12,U96C U119G,0.13
13,U12C G126A,1.73
14,A31U U45G,1.5
15,C28G U45C,1.09
16,U45G G88A,0.06
17,G48A U102C,1.94
18,G21A U115G,0.96
19,U46C U62A,0.05
20,U62C G72U,0.03
21,A107U A136G,1.92
22,A64U A138C,0.64
23,G7A G75A,0.95
24,G88U U115A,0.07

row,Variant,self-cleavage
1,U12C A78G,0.95
2,A22G U81G,1.03
3,U9A A57G,0.98
4,A79G C128U,0.92
5,G36A A69G,0.34
6,U46G A78G,0.6
7,A24G G53U,1.03
8,A6U U104C,1.02
9,C99A U108C,1.2
10,U14C U26A,0.95
11,U12G G40A,1.41
12,U12C A67C,0.09
13,C38U A107G,1.63
14,U15C A67G,0.44
15,U52C A65U,0.19
16,U47G A65C,0
17,U14C A69G,0.6
18,U12A A142G,1.31
19,C66U U100C,0.07
20,G72C U73C,1.13
21,G86A U112C,0.08
22,U23A U62A,0.05
23,A92G U112A,0.09
24,A92C U132C,0

row,Variant,self-cleavage
1,U20A C131U,1.36
2,U39C G106C,0.84
3,A77U A129C,1.28
4,G32U C113U,0.49
5,U109C U132A,1.14
6,A136C A140G,1.53
7,A24G U109C,0.76
8,A50G U130A,0.83
9,A24U A64G,0.23
10,C133U A138U,2.36
11,A67C U73C,0.22
12,A43C C99U,0.98
13,U85C A92G,0.28
14,U5A U100A,0.51
15,G36A U115A,1.39
16,G4U G80C,1.07
17,U5C G48A,0.45
18,U62A U73A,0.04
19,C37G A129G,0.9
20,C113U G126A,1.62
21,A67G G93A,0.02
22,A69G G72A,0.54
23,U102G,0.71
24,U119A U143C,1.93

row,Variant,self-cleavage
1,G83A A107G,0.91
2,U47A G125A,1.11
3,U81C G122U,1.14
4,G55C A117C,0.42
5,U13C C103A,1
6,A57G A94U,0.19
7,A50G U102C,1.51
8,C90U A124G,0.02
9,A30U G48U,0.71
10,U87A A94U,0.04
11,U62C A64G,0.08
12,U102G G144U,0.97
13,A50U A141U,0.68
14,U108C C145G,2.49
15,A57U C63A,0.04
16,U112G G139A,1.15
17,A69C U112C,0
18,U9C A57G,0.96
19,G74A,0.95
20,A64C A67U,0.11
21,U87G U143C,0.18
22,U29A C66U,0.25
23,A94U U143A,0.21
24,A2U U47A,0.85

row,Variant,self-cleavage
1,G74A A124U,1.22
2,C76U A138G,2.42
3,G75A A79G,0.83
4,C116U G125C,1.54
5,G86U U96G,0.13
6,A121G A129G,1.58
7,U26A G72U,0.77
8,U15A U29C,2.9
9,U29C U81A,1.3
10,U9C G126U,1.68
11,A64C A124U,0.27
12,U52C A138C,1.62
13,U5C A69G,0.78
14,U100C G126U,1.37
15,U1A A30C,1.44
16,U12G A94U,0.24
17,A77G G80U,2.02
18,U1A A2G,1.2
19,U47A A140G,0.99
20,A31U A124U,1.42
21,A24U A92G,0.08
22,A50U A78G,0.83
